Assay results from US20260250322A1, “NEW PEPTIDES AS SELECTIVE IL-23 RECEPTOR INHIBITORS” (SANOFI, priority 2023, published 2026).
Each block holds one binder with its values, some of them ahead of it. Numbered stars: 1 amine (or outer) side, 2 acyl side, 3 side chain; on linkers, the order of the positions; unused ones are H or OH. Bridge positions count the residues as written; N and C are the ends. Square brackets hold non-standard residues; d marks the D form. Primed or numbered codes have the meaning given here. Phe(4-OMe) = Yme, 4-methoxy-L-phenylalanine (O-methyl-tyrosine), COc1ccc(C[C@H](N[*:1])C(=O)[*:2])cc1; Tyr(Me) = Yme = 4-methoxy-L-phenylalanine (O-methyl-tyrosine), COc1ccc(C[C@H](N[*:1])C(=O)[*:2])cc1; Tyr(Me)″ = O-methyl-tyrosine (4-methoxy-phenylalanine), COc1ccc(C[C@H](N[*:1])C(=O)[*:2])cc1; 1Nal = N[C@@H](Cc1cccc2ccccc12)C(=O)O; 2Nal = N[C@@H](Cc1ccc2ccccc2c1)C(=O)O; AEF = NCCOc1ccc(C[C@H](N)C(=O)O)cc1; Cit = NC(=O)NCCC[C@H](N)C(=O)O; Agb = N=C(N)NCC[C@H](N)C(=O)O; dOrn = NCCC[C@@H](N)C(=O)O; Orn = NCCC[C@H](N)C(=O)O; Thp = NC1(C(=O)O)CCOCC1; Aib = CC(C)(N)C(=O)O; Ahx = NCCCCCC(=O)O

Key:
[1] = target: T1, recombinant human IL-23R-Fc chimera (human, UniProt Q5VWK5 24-353, limits assumed); test: competition ELISA: coated human IL-23, IL-23R-Fc 0.1 ug/ml, peptide titrated
T1 construct: Recombinant reagent; also called interleukin-23 receptor; not shown: detected with goat anti-hu-IgG1-HRP antibody
T1 sequence (looked up): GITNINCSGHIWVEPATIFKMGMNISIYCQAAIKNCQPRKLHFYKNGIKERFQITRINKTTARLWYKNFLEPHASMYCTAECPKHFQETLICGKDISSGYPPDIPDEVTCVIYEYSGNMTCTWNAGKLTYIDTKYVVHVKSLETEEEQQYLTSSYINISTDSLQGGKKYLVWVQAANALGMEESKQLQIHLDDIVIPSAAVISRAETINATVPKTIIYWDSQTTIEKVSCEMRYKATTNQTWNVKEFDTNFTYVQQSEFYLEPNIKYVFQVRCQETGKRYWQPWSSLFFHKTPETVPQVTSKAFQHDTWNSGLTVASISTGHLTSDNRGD
Method: Antagonism of peptide compounds for human interleukin-23 receptor inhibitors, was determined by an ELISA assay.
A 384-well plate was coated with 50 μl/well of human IL-23 at a final concentration of 1 μg/ml and incubated overnight at 4° C. The wells were washed 3 times with 80 μl wash buffer and blocked with 80 μl blocking buffer for 60 minutes at room temperature and washed again. 20 μl of serially diluted test peptides was added to each well and subsequently 20 μl of recombinant human IL-23R-Fc chimera at final concentration of 0.1 μg/ml. The plate was incubated for 60 minutes at room temperature. After the wells were washed, bound IL-23R-Fc was detected with goat anti-hu-lgG1-HRP antibody. Signals were visualized with QuantaBlu Fluorogenic Peroxidase Substrate.

[2] = target: T2, IL-23 receptor on the surface of HEK-Blue IL-23 cells (UniProt Q5VWK5 24-629, limits assumed); test: cell-based or functional assay
T2 sequence (looked up): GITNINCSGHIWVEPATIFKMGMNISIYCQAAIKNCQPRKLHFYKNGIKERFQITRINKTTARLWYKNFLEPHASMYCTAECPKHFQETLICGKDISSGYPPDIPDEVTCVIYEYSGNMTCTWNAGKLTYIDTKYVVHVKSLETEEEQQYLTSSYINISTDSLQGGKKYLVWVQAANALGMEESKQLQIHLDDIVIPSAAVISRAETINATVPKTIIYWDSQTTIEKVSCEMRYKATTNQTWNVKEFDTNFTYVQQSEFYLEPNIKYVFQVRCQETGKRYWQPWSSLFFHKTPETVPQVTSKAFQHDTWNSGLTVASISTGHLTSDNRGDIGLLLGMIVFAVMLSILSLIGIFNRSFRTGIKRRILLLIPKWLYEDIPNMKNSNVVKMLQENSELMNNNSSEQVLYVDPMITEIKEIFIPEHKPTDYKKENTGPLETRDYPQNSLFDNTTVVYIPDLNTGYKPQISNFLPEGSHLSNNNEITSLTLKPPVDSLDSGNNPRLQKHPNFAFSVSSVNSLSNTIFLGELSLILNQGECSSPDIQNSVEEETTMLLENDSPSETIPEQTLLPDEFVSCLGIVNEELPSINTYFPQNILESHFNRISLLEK

- IC50 [1]: 1.46 nM
B1: peptide compound SEQ ID NO: 39 (peptide)
peptide: Ac-[dK]NTWQ[Agb][Phe(4-OMe)][2Nal][Aib]DNN-NH2
modifications: lactam 1-10
SMILES: COc1ccc(C[C@@H]2NC(=O)[C@H](CCNC(=N)N)NC(=O)[C@H](CCC(N)=O)NC(=O)[C@H](Cc3c[nH]c4ccccc34)NC(=O)[C@H]([C@@H](C)O)NC(=O)[C@H](CC(N)=O)NC(=O)[C@H](NC(C)=O)CCCCNC(=O)C[C@@H](C(=O)N[C@@H](CC(N)=O)C(=O)N[C@@H](CC(N)=O)C(N)=O)NC(=O)C(C)(C)NC(=O)[C@H](Cc3ccc4ccccc4c3)NC2=O)cc1

- Inhibition of IL-23 induced pSTAT3 (IC50 nM) [2]: 10000 nM
- IC50 [1]: 11.8 nM
B2: peptide compound SEQ ID NO: 18 (peptide)
peptide: Ac-[dK]NTWQR[Tyr(Me)][1Nal][Cit]DNN-NH2
modifications: lactam 1-10
SMILES: COc1ccc(C[C@@H]2NC(=O)[C@H](CCCNC(=N)N)NC(=O)[C@H](CCC(N)=O)NC(=O)[C@H](Cc3c[nH]c4ccccc34)NC(=O)[C@H]([C@@H](C)O)NC(=O)[C@H](CC(N)=O)NC(=O)[C@H](NC(C)=O)CCCCNC(=O)C[C@@H](C(=O)N[C@@H](CC(N)=O)C(=O)N[C@@H](CC(N)=O)C(N)=O)NC(=O)[C@H](CCCNC(N)=O)NC(=O)[C@H](Cc3cccc4ccccc34)NC2=O)cc1

- Inhibition of IL-23 induced pSTAT3 (IC50 nM) [2]: 9280 nM
- IC50 [1]: 18.9 nM
B3: peptide compound SEQ ID NO: 11 (peptide)
peptide: Ac-[dD]NTWQR[Tyr(Me)][1Nal][Aib]KNN-NH2
modifications: lactam 1-10
SMILES: COc1ccc(C[C@@H]2NC(=O)[C@H](CCCNC(=N)N)NC(=O)[C@H](CCC(N)=O)NC(=O)[C@H](Cc3c[nH]c4ccccc34)NC(=O)[C@H]([C@@H](C)O)NC(=O)[C@H](CC(N)=O)NC(=O)[C@H](NC(C)=O)CC(=O)NCCCC[C@@H](C(=O)N[C@@H](CC(N)=O)C(=O)N[C@@H](CC(N)=O)C(N)=O)NC(=O)C(C)(C)NC(=O)[C@H](Cc3cccc4ccccc34)NC2=O)cc1

- IC50 [1]: 3.11 nM
B4: peptide compound SEQ ID NO: 40 (peptide)
peptide: [Ahx]NTWQ[Agb][Phe(4-OMe)][2Nal][Aib]ENN-NH2
modifications: lactam N-10
SMILES: COc1ccc(C[C@@H]2NC(=O)[C@H](CCNC(=N)N)NC(=O)[C@H](CCC(N)=O)NC(=O)[C@H](Cc3c[nH]c4ccccc34)NC(=O)[C@H]([C@@H](C)O)NC(=O)[C@H](CC(N)=O)NC(=O)CCCCCNC(=O)CC[C@@H](C(=O)N[C@@H](CC(N)=O)C(=O)N[C@@H](CC(N)=O)C(N)=O)NC(=O)C(C)(C)NC(=O)[C@H](Cc3ccc4ccccc4c3)NC2=O)cc1

- IC50 [1]: 0.78 nM
B5: peptide compound SEQ ID NO: 51 (peptide)
peptide: Ac-[dK]NTWQA[Phe(4-OMe)][2Nal][Thp]DNN-NH2
modifications: lactam 1-10
SMILES: COc1ccc(C[C@@H]2NC(=O)[C@H](C)NC(=O)[C@H](CCC(N)=O)NC(=O)[C@H](Cc3c[nH]c4ccccc34)NC(=O)[C@H]([C@@H](C)O)NC(=O)[C@H](CC(N)=O)NC(=O)[C@H](NC(C)=O)CCCCNC(=O)C[C@@H](C(=O)N[C@@H](CC(N)=O)C(=O)N[C@@H](CC(N)=O)C(N)=O)NC(=O)C3(CCOCC3)NC(=O)[C@H](Cc3ccc4ccccc4c3)NC2=O)cc1

- Inhibition of IL-23 induced pSTAT3 (IC50 nM) [2]: 8010 nM
- IC50 [1]: 5.74 nM
B6: peptide compound SEQ ID NO: 16 (peptide)
peptide: Ac-[dK]NTWQR[Tyr(Me)][1Nal][Aib]ENN-NH2
modifications: lactam 1-10
SMILES: COc1ccc(C[C@@H]2NC(=O)[C@H](CCCNC(=N)N)NC(=O)[C@H](CCC(N)=O)NC(=O)[C@H](Cc3c[nH]c4ccccc34)NC(=O)[C@H]([C@@H](C)O)NC(=O)[C@H](CC(N)=O)NC(=O)[C@H](NC(C)=O)CCCCNC(=O)CC[C@@H](C(=O)N[C@@H](CC(N)=O)C(=O)N[C@@H](CC(N)=O)C(N)=O)NC(=O)C(C)(C)NC(=O)[C@H](Cc3cccc4ccccc34)NC2=O)cc1

- Inhibition of IL-23 induced pSTAT3 (IC50 nM) [2]: 1570 nM
- IC50 [1]: 12.5 nM
B7: peptide compound SEQ ID NO: 38 (peptide)
peptide: Ac-[Orn]NTWQR[AEF][2Nal][Aib]ENN-NH2
modifications: lactam 1-10
SMILES: CC(=O)N[C@H]1CCCNC(=O)CC[C@@H](C(=O)N[C@@H](CC(N)=O)C(=O)N[C@@H](CC(N)=O)C(N)=O)NC(=O)C(C)(C)NC(=O)[C@H](Cc2ccc3ccccc3c2)NC(=O)[C@H](Cc2ccc(OCCN)cc2)NC(=O)[C@H](CCCNC(=N)N)NC(=O)[C@H](CCC(N)=O)NC(=O)[C@H](Cc2c[nH]c3ccccc23)NC(=O)[C@H]([C@@H](C)O)NC(=O)[C@H](CC(N)=O)NC1=O

- IC50 [1]: 1.34 nM
B8: peptide compound SEQ ID NO: 47 (peptide)
peptide: Ac-[dK]NTWQA[Tyr(Me)″][2Nal]RDNN-NH2
modifications: lactam 1-10
SMILES: COc1ccc(C[C@@H]2NC(=O)[C@H](C)NC(=O)[C@H](CCC(N)=O)NC(=O)[C@H](Cc3c[nH]c4ccccc34)NC(=O)[C@H]([C@@H](C)O)NC(=O)[C@H](CC(N)=O)NC(=O)[C@H](NC(C)=O)CCCCNC(=O)C[C@@H](C(=O)N[C@@H](CC(N)=O)C(=O)N[C@@H](CC(N)=O)C(N)=O)NC(=O)[C@H](CCCNC(=N)N)NC(=O)[C@H](Cc3ccc4ccccc4c3)NC2=O)cc1
notes: synthetic macrolactam

- IC50 [1]: 19.7 nM
B9: peptide compound SEQ ID NO: 27 (peptide)
peptide: Ac-[dOrn]NTWQR[Tyr(Me)][2Nal][Aib]DNN-NH2
modifications: lactam 1-10
SMILES: COc1ccc(C[C@@H]2NC(=O)[C@H](CCCNC(=N)N)NC(=O)[C@H](CCC(N)=O)NC(=O)[C@H](Cc3c[nH]c4ccccc34)NC(=O)[C@H]([C@@H](C)O)NC(=O)[C@H](CC(N)=O)NC(=O)[C@H](NC(C)=O)CCCNC(=O)C[C@@H](C(=O)N[C@@H](CC(N)=O)C(=O)N[C@@H](CC(N)=O)C(N)=O)NC(=O)C(C)(C)NC(=O)[C@H](Cc3ccc4ccccc4c3)NC2=O)cc1

- Inhibition of IL-23 induced pSTAT3 (IC50 nM) [2]: 1380 nM
- IC50 [1]: 5.42 nM
B10: peptide compound SEQ ID NO: 14 (peptide)
peptide: Ac-[dK]NTWQRY[1Nal][Aib]DNN-NH2
modifications: lactam 1-10
SMILES: CC(=O)N[C@@H]1CCCCNC(=O)C[C@@H](C(=O)N[C@@H](CC(N)=O)C(=O)N[C@@H](CC(N)=O)C(N)=O)NC(=O)C(C)(C)NC(=O)[C@H](Cc2cccc3ccccc23)NC(=O)[C@H](Cc2ccc(O)cc2)NC(=O)[C@H](CCCNC(=N)N)NC(=O)[C@H](CCC(N)=O)NC(=O)[C@H](Cc2c[nH]c3ccccc23)NC(=O)[C@H]([C@@H](C)O)NC(=O)[C@H](CC(N)=O)NC1=O
notes: synthetic macrolactam

- Inhibition of IL-23 induced pSTAT3 (IC50 nM) [2]: 8110 nM
- IC50 [1]: 18.8 nM
B11: peptide compound SEQ ID NO: 26 (peptide)
peptide: Ac-[dK]NTWQR[Tyr(Me)][2Nal][Aib]DN-NH2
modifications: lactam 1-10
SMILES: COc1ccc(C[C@@H]2NC(=O)[C@H](CCCNC(=N)N)NC(=O)[C@H](CCC(N)=O)NC(=O)[C@H](Cc3c[nH]c4ccccc34)NC(=O)[C@H]([C@@H](C)O)NC(=O)[C@H](CC(N)=O)NC(=O)[C@H](NC(C)=O)CCCCNC(=O)C[C@@H](C(=O)N[C@@H](CC(N)=O)C(N)=O)NC(=O)C(C)(C)NC(=O)[C@H](Cc3ccc4ccccc4c3)NC2=O)cc1

- Inhibition of IL-23 induced pSTAT3 (IC50 nM) [2]: 5650 nM
- IC50 [1]: 7.87 nM
B12: peptide compound SEQ ID NO: 17 (peptide)
peptide: Ac-[dK]NTWQR[Tyr(Me)″][1Nal]K(Ac)DNN-NH2
modifications: lactam 1-10
SMILES: COc1ccc(C[C@@H]2NC(=O)[C@H](CCCNC(=N)N)NC(=O)[C@H](CCC(N)=O)NC(=O)[C@H](Cc3c[nH]c4ccccc34)NC(=O)[C@H]([C@@H](C)O)NC(=O)[C@H](CC(N)=O)NC(=O)[C@H](NC(C)=O)CCCCNC(=O)C[C@@H](C(=O)N[C@@H](CC(N)=O)C(=O)N[C@@H](CC(N)=O)C(N)=O)NC(=O)[C@H](CCCCNC(C)=O)NC(=O)[C@H](Cc3cccc4ccccc34)NC2=O)cc1
notes: synthetic macrolactam
